Measurements as given in paper PMC4516155 (FASEB journal : official publication of the Federation of …, 2013).

T1: GST-FE65 PTB1 (bacterially expressed) (UniProt O00213 361-514)
T1 sequence (looked up): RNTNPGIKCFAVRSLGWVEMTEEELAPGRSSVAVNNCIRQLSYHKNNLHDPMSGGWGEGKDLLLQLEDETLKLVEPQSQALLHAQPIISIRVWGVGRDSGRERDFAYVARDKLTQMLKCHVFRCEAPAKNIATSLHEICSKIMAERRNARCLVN

T2: GST-FE65 PTB1 (mammalian, pCIneo-GST-FE65 PTB1) (human, UniProt O00213 361-514)
T2 sequence (looked up): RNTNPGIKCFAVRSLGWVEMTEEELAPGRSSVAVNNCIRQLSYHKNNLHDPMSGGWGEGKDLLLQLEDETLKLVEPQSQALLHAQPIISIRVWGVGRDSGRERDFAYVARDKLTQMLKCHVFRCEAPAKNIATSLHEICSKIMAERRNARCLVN


Experiments:
[1] = biological target: T1, GST-FE65 PTB1 (bacterially expressed); experiment: pull-down
[2] = biological target: T2, GST-FE65 PTB1 (mammalian, …); experiment: pull-down

| Binder | percent of input pulled down [1] | percent of input pulled down [2] |
| --- | --- | --- |
| Myc/His-tagged wild-type ARF6 (natural protein, UniProt P62330 1-175, looked up) MGKVLSKIFGNKEMRILMLGLDAAGKTTILYKLKLGQSVTTIPTVGFNVETVTYKNVKFNVWDVGGQDKIRPLWRHYYTGTQGLIFVVDCADRDRIDEARQELHRIINDREMRDAIILIFANKQDLPDAMKPHEIQEKLGLTRIRDRNWYVQPSCATSGDGLYEGLTWLTSNYKS | 12% | – |
| Myc/His-tagged ARF6 T27N (natural protein, UniProt P62330 1-175, looked up) MGKVLSKIFGNKEMRILMLGLDAAGKNTILYKLKLGQSVTTIPTVGFNVETVTYKNVKFNVWDVGGQDKIRPLWRHYYTGTQGLIFVVDCADRDRIDEARQELHRIINDREMRDAIILIFANKQDLPDAMKPHEIQEKLGLTRIRDRNWYVQPSCATSGDGLYEGLTWLTSNYKS | 27% | 23% |
| Myc/His-tagged ARF6 Q67L (natural protein, UniProt P62330 1-175, looked up) MGKVLSKIFGNKEMRILMLGLDAAGKTTILYKLKLGQSVTTIPTVGFNVETVTYKNVKFNVWDVGGLDKIRPLWRHYYTGTQGLIFVVDCADRDRIDEARQELHRIINDREMRDAIILIFANKQDLPDAMKPHEIQEKLGLTRIRDRNWYVQPSCATSGDGLYEGLTWLTSNYKS | 0.7% | 2% |
